Assay results: patent US20200155714A1, “DUAL-TARGET IMAGING MOLECULAR PROBE, PREPARATION METHOD THEREFOR, AND APPLICATIONS THEREOF” (PEKING UNION MEDICAL COLLEGE HOSPITAL, CHINESE ACADEMY OF …, priority 2017, published 2020)

Set-up: species or system mice
Conditions: mouse, in vivo
Description: {circumflex over (4)} Biodistribution of ^68Ga-NOTA-3PEG4-TATE-RGD in Healthy Mice
There was small amount of uptake in the heart, liver and lungs, which decreased quickly over time.

## CC(O)[C@@H]1NC(=O)[C@H](CCCCN)NC(=O)[C@@H](Cc2c[nH]c3ccccc23)NC(=O)[C@H](Cc2ccc(O)cc2)NC(=O)[C@@H](NC(=O)[C@@H](Cc2ccccc2)NC(=O)COCCOCCOCCOCCNC(=O)C(CCC(=O)NCCOCCOCCOCCOCC(=O)NCCCC[C@@H]2NC(=O)[C@@H](Cc3ccc(O)cc3)NC(=O)[C@H](CC(=O)O)NC(=O)CNC(=O)[C@H](CCCNC(=N)N)NC2=O)NC(=O)COCCOCCOCCOCCNC(=S)Nc2ccc(CC3CN(CC(=O)O)CCN(CC(=O)O)CCN3CC(=O)O)cc2)CSSC[C@@H](C(=O)N[C@H](C(=O)O)[C@@H](C)O)NC1=O (stereo partly drawn) [^68Ga-NOTA-3PEG4-TATE-RGD, metal not drawn]
  clearance from blood, heart and liver: cleared from the blood, heart and liver faster
  distribution in brain tissues / blood-brain barrier passage: could not pass through the blood-brain barrier
  route of excretion: mainly excreted through the kidneys
